We go through 4 molecules from PMC4931181 (The EMBO Journal, 2016).

A word on the stoichiometry N: it is a count of units in the complex or per binding partner.

Data set [1] has as its target Xenopus laevis histone H2B (28–126) (Xenopus laevis, UniProt P02281 28-126). Kind of data set: crystal structure.
Data set [2] deals with the molecule itself. Kind of data set: native MS.

Several values for one entry are separate records, joined by “and”; a condition that tells them apart may be missing. Equal values may be shown once.

B1: Saccharomyces cerevisiae Nap1 core domain (residues 75–365) (domain or fragment)
chain: GSLVGQDSGYVGGLPKNVKEKLLSLKTLQSELFEVEKEFQVEMFELENKFLQKYKPIWEQRSRIISGQEQPKPEQIAKGQEIVESLNETELLVDEEEKAQNDSEEEQVKGIPSFWLTALENLPIVCDTITDRDAEVLEYLQDIGLEYLTDGRPGFKLLFRFDSSANPFFTNDILCKTYFYQKELGYSGDFIYDHAEGCEISWKDNAHNVTVDLEMRKQRNKTTKQVRTIEKITPIESFFNFFDPPKIQNEDQDEELEEDLEERLALDYSIGEQLKDKLIPRAVDWFTGAAL
Regarding B1, the binding result in data set [1] is listed as “binds”. Besides, in data set [2], the “stoichiometry N” value was 2 and 4 and 6.

B2: Saccharomyces cerevisiae Nap1 full-length (residues 1–417) (natural protein)
chain: MSDPIRTKPKSSMQIDNAPTPHNTPASVLNPSYLKNGNPVRAQAQEQDDKIGTINEEDILANQPLLLQSIQDRLGSLVGQDSGYVGGLPKNVKEKLLSLKTLQSELFEVEKEFQVEMFELENKFLQKYKPIWEQRSRIISGQEQPKPEQIAKGQEIVESLNETELLVDEEEKAQNDSEEEQVKGIPSFWLTALENLPIVCDTITDRDAEVLEYLQDIGLEYLTDGRPGFKLLFRFDSSANPFFTNDILCKTYFYQKELGYSGDFIYDHAEGCEISWKDNAHNVTVDLEMRKQRNKTTKQVRTIEKITPIESFFNFFDPPKIQNEDQDEELEEDLEERLALDYSIGEQLKDKLIPRAVDWFTGAALEFEFEEDEEEADEDEDEEEDDDHGLEDDDGESAEEQDDFAGRPEQAPECKQS
For B2, in data set [2], the “stoichiometry N” value was 2 and 4 and 6.

B3: yNap1cΔ (core 75–365 with in-frame deletion of the β5–β6 region, Δ284–308) (domain or fragment)
chain: GSLVGQDSGYVGGLPKNVKEKLLSLKTLQSELFEVEKEFQVEMFELENKFLQKYKPIWEQRSRIISGQEQPKPEQIAKGQEIVESLNETELLVDEEEKAQNDSEEEQVKGIPSFWLTALENLPIVCDTITDRDAEVLEYLQDIGLEYLTDGRPGFKLLFRFDSSANPFFTNDILCKTYFYQKELGYSGDFIYDHAEGCEISWKDNAHNVIESFFNFFDPPKIQNEDQDEELEEDLEERLALDYSIGEQLKDKLIPRAVDWFTGAAL
For the molecule B3, the binding result in data set [2] is on record as “binds”.

B4: yNap1cΔ_G225D (domain or fragment)
chain: GSLVGQDSGYVGGLPKNVKEKLLSLKTLQSELFEVEKEFQVEMFELENKFLQKYKPIWEQRSRIISGQEQPKPEQIAKGQEIVESLNETELLVDEEEKAQNDSEEEQVKGIPSFWLTALENLPIVCDTITDRDAEVLEYLQDIGLEYLTDDRPGFKLLFRFDSSANPFFTNDILCKTYFYQKELGYSGDFIYDHAEGCEISWKDNAHNVIESFFNFFDPPKIQNEDQDEELEEDLEERLALDYSIGEQLKDKLIPRAVDWFTGAAL
In the case of B4, in data set [2], the “stoichiometry N” value is 2.
